Test results taken from article PMC8983682 (Nature Communications, 2022).

Target: full-length N1-CA09-WT, membrane-anchored, C-terminal myc tag (Influenza A virus A/California/07/2009 …, UniProt C7FH46, strain)
Test: flow cytometry on cells
Settings: one partner purified

B1: CD6 IgG (antibody, V domains shown)
VH: QVKLQESGGGLVQPKGSLKLSCAASGFTFNTYAMNWVRQAPGKGLEWVARIRSKSNNYATFYADSVKDRFTISRDDSQSMLYLQMHNLKTDDTAMYYCVRPSIYYYASGYLDVWGAGTTVTVSS
VL: QIVLSQSPAILSASPGEKVTMTCRTSSSVSYMHWYQQKPGSSPKPWIYATSNLASGVPFRFSGSGSGTSYSLTISRVEAEDAATYYCQQWNSNPPTFGGGTKLEIK
notes: copies: 2 + 2
binding result: binds
